Test results from the supplement of paper PMC7125110.
± gives the standard error. For some of these results: This sample holds only a part of the variants without activity.

B1: glmS ribozyme (parent)
chain: AUAAAAGCGCCAGAACUACAGAAAUGUAGUUGACGAGGAGGAGGUUUAUCGAAUUUUCGGCGGAUGCCUCCAAA

What was measured:
Conditions in all cases: with glucosamine-6-phosphate
[1] = variants of: B1; assay: kcat; higher = faster cleavage; RNA array
How it was run: (§1)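 Barcoded ribozyme variants on sequenced MiSeq chips were transcribed in situ by E. coli RNA polymerase and followed at 37 °C through a hybridised Cy3 probe. Glucosamine-6-phosphate at 40 μM to 10 mM in HEPES/KCl/Mg(OAc)2 buffer was flowed in, and tiles were imaged over ~14 h. Signals were normalised to baseline and to non-cleaving reference variants, and per-tile medians were fit to one- or two-exponential decays to give kobs. Weighted Michaelis–Menten fits across concentrations gave kcat and KM.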

[2] = variants of: B1; assay: KM; higher = weaker cofactor use; RNA array
How it was run: as §1

[3] = variants of: B1; assay: self-cleavage kobs at 2500 uM GlcN6P; higher = faster cleavage; RNA array
How it was run: as §1

[4] = variants of: B1; assay: self-cleavage kobs at 10000 uM GlcN6P; higher = faster cleavage; RNA array
How it was run: as §1

[5] = variants of: B1; assay: self-cleavage kobs at 640 uM GlcN6P; higher = faster cleavage; RNA array
How it was run: as §1

[6] = variants of: B1; assay: self-cleavage kobs at 40 uM GlcN6P; higher = faster cleavage; RNA array
How it was run: as §1

[7] = variants of: B1; assay: self-cleavage kobs at 160 uM GlcN6P; higher = faster cleavage; RNA array
How it was run: as §1

Variant | kcat [1] | KM [2] | self-cleavage kobs at 2500 uM GlcN6P [3] | self-cleavage kobs at 10000 uM GlcN6P [4] | self-cleavage kobs at 640 uM GlcN6P [5] | self-cleavage kobs at 40 uM GlcN6P [6] | self-cleavage kobs at 160 uM GlcN6P [7]
A53U U55G A64C | 9.81e-05 ± 5.1e-06 s⁻¹ | 3420 ± 520 µM | 4.12e-05 ± 1.6e-05 s⁻¹ | 7.31e-05 ± 1.4e-05 s⁻¹ | – | – | –
U49G C67G | 8.59e-05 ± 1e-05 s⁻¹ | – | 4.61e-05 ± 8.8e-06 s⁻¹ | 7.87e-05 ± 6.7e-06 s⁻¹ | 3.79e-05 ± 1e-05 s⁻¹ | – | –
U54C C68G | 8.49e-05 ± 1.1e-05 s⁻¹ | – | 9.2e-05 ± 1.4e-05 s⁻¹ | 7.49e-05 ± 1e-05 s⁻¹ | 4.44e-05 ± 1e-05 s⁻¹ | – | –
C50U U57A G59C U65A C70U | 2.56e-05 ± 4.5e-06 s⁻¹ | 293 ± 140 µM | – | < 1e-05 s⁻¹ | – | < 1e-05 s⁻¹ | –
U49G U54A | 0.00122 ± 0.00034 s⁻¹ | 3170 ± 1400 µM | – | 0.000941 ± 0.00014 s⁻¹ | 0.000176 ± 3.6e-05 s⁻¹ | – | 9.47e-05 ± 2.3e-05 s⁻¹
A53G C71A | 0.00448 ± 0.002 s⁻¹ | – | 0.00297 ± 0.0007 s⁻¹ | 0.00857 ± 0.0012 s⁻¹ | 0.00169 ± 0.00037 s⁻¹ | 0.000374 ± 4.3e-05 s⁻¹ | 0.00085 ± 0.00013 s⁻¹
U54G A64C | 0.000177 ± 1.8e-05 s⁻¹ | 2030 ± 590 µM | 0.000116 ± 2.4e-05 s⁻¹ | 0.000143 ± 1.8e-05 s⁻¹ | 3.56e-05 ± 1.3e-05 s⁻¹ | < 1e-05 s⁻¹ | –
U54G A64G | 0.0237 ± 0.011 s⁻¹ | – | 0.0145 ± 0.0059 s⁻¹ | 0.0227 ± 0.0052 s⁻¹ | 0.0071 ± 0.0013 s⁻¹ | 0.000837 ± 0.0001 s⁻¹ | 0.00149 ± 0.00039 s⁻¹
A52U U65C | < 1e-05 s⁻¹ | – | – | – | – | < 1e-05 s⁻¹ | –
A52C G66C | 1.28e-05 ± 2.9e-06 s⁻¹ | – | – | – | < 1e-05 s⁻¹ | < 1e-05 s⁻¹ | –
A53G C70A | 0.000194 ± 2e-05 s⁻¹ | 63.2 ± 16 µM | 0.000183 ± 2.6e-05 s⁻¹ | – | 0.000188 ± 2.3e-05 s⁻¹ | 7.6e-05 ± 7e-06 s⁻¹ | 0.000132 ± 1.6e-05 s⁻¹
A53C U69A | 0.000135 ± 1.3e-05 s⁻¹ | 683 ± 200 µM | 0.000124 ± 2.1e-05 s⁻¹ | 0.000118 ± 1.8e-05 s⁻¹ | 6.52e-05 ± 1.2e-05 s⁻¹ | – | –
G51C U69A | < 1e-05 s⁻¹ | – | – | – | – | < 1e-05 s⁻¹ | –
G51A C67A | 1.27e-05 ± 2.8e-06 s⁻¹ | – | – | – | – | – | –
A53U A64U | 6.7e-05 ± 2e-06 s⁻¹ | 1330 ± 190 µM | 4.18e-05 ± 1.2e-05 s⁻¹ | 5.95e-05 ± 7.3e-06 s⁻¹ | – | < 1e-05 s⁻¹ | –
G51U C61A | < 1e-05 s⁻¹ | – | – | < 1e-05 s⁻¹ | – | < 1e-05 s⁻¹ | < 1e-05 s⁻¹
U49G A64G | 0.00241 ± 0.00088 s⁻¹ | – | 0.000922 ± 0.00016 s⁻¹ | 0.00232 ± 0.0003 s⁻¹ | 0.000414 ± 6.7e-05 s⁻¹ | 6.16e-05 ± 1e-05 s⁻¹ | 0.00015 ± 4.1e-05 s⁻¹
